Data taken from IntAct's records for PubMed 20094029.

B1: BRCT-containing protein 1 (Schizosaccharomyces pombe (strain ATCC 38366 / 972)), Q10337 (parent)
chain: MLAAESSNKELFIKNDGKALSFPYDWKLATHVICDDFSSPNVQEGSKRSLRLAKTNWIRDCVDKNTLLNYSFYSCNPYLLFKGICASSCQIDSYQSSLIDDALETFGGRFSKGLMKSMTHLFTYSGMGAKCKKVLDKPSLSIKLIHPQWLLDCLQFGQLIDQDPYLFPNPSYKKNDSSISKAEPTSLFRNVLHGKRIYFSNDLNLPTNFRHSLQKFSVGIGAKIAESINDCDIFIGLKRDTIEFNLASNKNTTIGTISWLLNLFVLGSWKSPLLNALHYPFPSVGFLKDQMVAVTNYTDAARIYLEKLLLACGATYTKDLKPTNTLLIAASSYGQKYGAAKVWNIPTVHHSWLYSSFKNLSSQAFTDFPVPLDDSYMDFIFPCPLNVEKGSFEDTLKSSLTKGNSEVLLDDLSDPSVSSIKGNKTNEELEKEFKSTSDNFGKHIILTSSFSNQSADKGSSLAAEDDRNDEGSTITGVNRELQDEGRLEIDAKSSKTNTPPSPLLVGTPSKESLKEASSDDELPVLATKLVDNVIKEKSPLSLTPKVVVPSHKETYTDEKKLIDELDRVNPLNSSQLLRSKRKSAATALSMLQNVIMPDVLAFEREKKRRQTHRSVSSGEVSRESSESRNTNAKASKRVYITFTGYDKKPSIDNLKKLDMSITSNPSKCTHLIAPRILRTSKFLCSIPYGPCVVTMDWINSCLKTHEIVDEEPYLLNDPEKELELGCTLESALKRARAQGPSLLEDYVVYLTSKTVAPENVPAVISIVKSNGGVCSTLNVYNKRLARHLEDGNVVLITCNEDSHIWTNFLDNASQNKTIFLQNYDWLIKTVLRQEIDVNDRIADEFARAV

Variants of: B1
Settings: with h2a1_schpo hta1, P04909

effect of a mutation on the interaction	Variant
disrupting interaction	T643A
